From US20260242478A1 (published 2026)
Where no end group is shown, it is not given here.

B1: Phage-844 (peptide)
peptide: YCDGHKPQYMEKCL
notes: Peptide-87 library clone, tested as clonal phage supernatant
B2: Phage-845 (peptide)
peptide: YCDGHIGEYMVKCL
notes: as for B1
B3: Phage-852 (peptide)
peptide: YCDGHHIEYLAKCL
notes: as for B1
B4: Phage-851 (peptide)
peptide: YCEGHSAEYMLKCL
notes: as for B1
B5: Phage-847 (peptide)
peptide: YCDGHVQEYMQKCL
notes: as for B1
B6: Phage-840 (peptide)
peptide: YCDGHSPQYMQKCL
modifications: cysteine pairing not given here; also: displayed on phage by fusion to pIII, pIII and linker sequence not given here
notes: as for B1
B7: Phage-849 (peptide)
peptide: YCDGHSPEYMNKCL
notes: as for B1
B8: Phage-848 (peptide)
peptide: YCHGHLQEYMAKCL
notes: as for B1
B9: Phage-843 (peptide)
peptide: YCDGHVEPYLSKCL
modifications: cysteine pairing not given here; also: displayed on phage by fusion to pIII, pIII and linker sequence not given here
notes: as for B1
B10: Phage-846 (peptide)
peptide: YCEGHLAQYMNKCL
notes: as for B1
B11: Phage-850 (peptide)
peptide: YCDGHAPVYMAKCL
notes: as for B1
B12: Phage-841 (peptide)
peptide: YCDGHIPEYLAKCL
modifications: cysteine pairing not given here; also: displayed on phage by fusion to pIII, pIII and linker sequence not given here
notes: as for B1
B13: Phage-842 (peptide)
peptide: YCDGHSQEYMLKCL
modifications: cysteine pairing not given here; also: displayed on phage by fusion to pIII, pIII and linker sequence not given here
notes: as for B1
B14: Phage-836 (Peptide-87 library sequence, SEQ ID NO: 1152) (peptide)
peptide: YCDGHLDEYMEKCL
B15: Phage-835 (Peptide-87 library sequence, SEQ ID NO: 1151) (peptide)
peptide: YCEGHSPEYMRKCL
B16: Phage-837 (Peptide-87 library sequence, SEQ ID NO: 1153) (peptide)
peptide: YCAGHLPEYMLKCL
B17: Phage-834 (Peptide-87 library sequence, SEQ ID NO: 1150) (peptide)
peptide: YCEGHSPQYVQKCL
B18: Phage-838 (Peptide-87 library sequence, SEQ ID NO: 1154) (peptide)
peptide: YCEGHLPIYMSKCL
B19: Phage-831 (Peptide-87 library sequence, SEQ ID NO: 1147) (peptide)
peptide: YCEGHLDEYMWKCL
B20: Phage-827 (Peptide-87 library sequence, SEQ ID NO: 1143) (peptide)
peptide: YCEGHLPAYMQKCL
B21: Phage-839 (Peptide-87 library sequence, SEQ ID NO: 1155) (peptide)
peptide: YCVGHLQEYMEKCL
B22: Phage-830 (Peptide-87 library sequence, SEQ ID NO: 1146) (peptide)
peptide: YCDGHSAEYITKCL
B23: Phage-832 (Peptide-87 library sequence, SEQ ID NO: 1148) (peptide)
peptide: YCDGLASEYMSKCL
B24: Phage-828 (Peptide-87 library sequence, SEQ ID NO: 1144) (peptide)
peptide: YCEGHHPQYMAKCL
B25: Phage-833 (Peptide-87 library sequence, SEQ ID NO: 1149) (peptide)
peptide: YCDGHSSEYIAKCL
B26: Phage-829 (Peptide-87 library sequence, SEQ ID NO: 1145) (peptide)
peptide: YCAGHVPEYMAKCL
B27: Phage-826 (Peptide-87 library peptide, SEQ ID NO: 1142) (peptide)
peptide: YCDGHAPMYMAKCL
B28: Phage-825 (Peptide-87 library peptide, SEQ ID NO: 1141) (peptide)
peptide: YCDGHLAEYMVKCL
B29: Phage-824 (Peptide-87 library peptide, SEQ ID NO: 1140) (peptide)
peptide: YCDGHSPEYIAKCL
B30: Phage-865 (peptide)
peptide: YCAGHSQEHIQKCL
notes: Peptide-87 library clone, tested as clonal phage (peptide fused to pIII)
B31: Phage-858 (peptide)
peptide: YCDGHAEKYMQKCL
notes: as for B30
B32: Phage-864 (peptide)
peptide: YCEGHLQTYMAKCL
notes: as for B30
B33: Phage-856 (peptide)
peptide: YCDGHYPEYMSKCL
notes: as for B30
B34: Phage-859 (peptide)
peptide: YCEGHAIEYLAKCL
notes: as for B30
B35: Phage-863 (peptide)
peptide: YCDGHLEEYMVKCM
notes: as for B30
B36: Phage-855 (peptide)
peptide: YCDGHSLQYMDKCL
notes: as for B30
B37: Phage-860 (peptide)
peptide: YCEGHSAEYMEKCL
notes: as for B30
B38: Phage-857 (peptide)
peptide: YCDGHASEYMAKCL
notes: as for B30
B39: Phage-854 (peptide)
peptide: YCEGHLPEYMQKCL
notes: as for B30
B40: Phage-862 (peptide)
peptide: YCEGHLPDYMQKCL
notes: as for B30
B41: Phage-853 (peptide)
peptide: YCSGHLPEYMQKCL
notes: as for B30
B42: Phage-861 (peptide)
peptide: YCSGHSAEYMLKCL
notes: as for B30

biological target: T1, Anti-CD28 Fab (SEQ ID NOs: 696, 697); experiment: phage binding ELISA on captured anti-CD28 Fab, wells pre-incubated with CD28 antigen as competitor;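 note: crude clonal phage supernatants added to wells preloaded with CD28 antigen, bound phage read by HRP-conjugated anti-M13 antibody, control wells got blocking buffer alone without CD28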
T1 construct: In the phage ELISA the Fab was biotinylated and captured on neutravidin coated plates
T1 sequence (VH, as listed by the source, chain 1 of 2): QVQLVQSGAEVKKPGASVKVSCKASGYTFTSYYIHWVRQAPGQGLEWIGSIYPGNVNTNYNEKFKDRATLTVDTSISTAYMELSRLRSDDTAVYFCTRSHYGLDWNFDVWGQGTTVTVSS
T1 sequence (VL, as listed by the source, chain 2 of 2): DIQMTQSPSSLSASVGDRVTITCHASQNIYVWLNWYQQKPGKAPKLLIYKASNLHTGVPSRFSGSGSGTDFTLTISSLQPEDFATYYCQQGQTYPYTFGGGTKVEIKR
Procedure: (§1) After panning, phage infected bacteria were plated out and colonies picked into 96 well blocks. Clonal phage was then amplified and separated from bacterial cells via centrifugation.
(§2) Clonal phage were harvested as crude supematants and screened via standard ELISAs. […] Prior to the addition of clonal phage, wells were incubated with blocking buffer and CD28 antigen or blocking buffer alone. Without washing or aspirating, clonal phage supematants were then added to the wells and incubated for a short time. Wells were then washed followed by detection of bound phage using a horse radish conjugated anti-M13 antibody. Clonal phage of interest were then sent for sequence analysis.

Binder	Anti-CD28 Fab signal in the presence of CD28
B1	0.08
B2	0.66
B3	0.1
B4	0.07
B5	0.07
B6	0.07
B7	0.06
B8	0.07
B9	0.1
B10	0.07
B11	0.06
B12	0.06
B13	0.05

biological target: T2, Anti-CD28 Fab (SEQ ID NOs: 696, 697); experiment: phage binding ELISA on captured anti-CD28 Fab, wells pre-incubated with CD28 antigen as competitor; anti-M13 HRP detection;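 for Anti-CD28 Fab signal in the presence of CD28: crude clonal phage supernatants added to wells preloaded with CD28 antigen, bound phage read by HRP-conjugated anti-M13 antibody, control wells got blocking buffer alone without CD28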
T2 construct: Biotinylated and captured on neutravidin coated plates in the phage ELISA
T2 sequence (VH, as listed by the source, chain 1 of 2): as the sequence (VH, as listed by the source, chain 1 of 2) above
T2 sequence (VL, as listed by the source, chain 2 of 2): as the sequence (VL, as listed by the source, chain 2 of 2) above
Procedure: as §1, §2

Binder	Phage binding ELISA, Anti-CD28 Fab signal in the presence of CD28
B14	0.08
B15	0.08
B16	0.09
B17	0.06
B18	0.09
B19	0.06
B20	0.07
B21	0.06
B22	0.06
B23	0.05
B24	0.09
B25	0.07
B26	0.07

biological target: Anti-CD28 Fab (SEQ ID NOs: 696, 697); experiment: phage ELISA; clonal phage on biotinylated anti-CD28 Fab captured on neutravidin, anti-M13 HRP detection
Target sequence in this assay (VH, as listed by the source, chain 1 of 2): as the sequence (VH, as listed by the source, chain 1 of 2) above
Target sequence in this assay (VL, as listed by the source, chain 2 of 2): as the sequence (VL, as listed by the source, chain 2 of 2) above
Procedure: as §1, §2

Binder	Phage binding ELISA, Anti-CD28 Fab signal
B27	1.79
B28	1.79
B29	1.79

biological target: T3, Anti-CD28 Fab (SEQ ID NOs: 696, 697); experiment: phage binding ELISA, clonal phage on biotinylated anti-CD28 Fab captured on neutravidin plates;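 note: crude clonal phage supernatants added to wells pretreated with CD28 antigen or blocking buffer only, bound phage detected by HRP-linked anti-M13 antibody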
T3 construct: Biotinylated and captured on neutravidin coated plates in the phage ELISA
T3 sequence (VH, as listed by the source, chain 1 of 2): as the sequence (VH, as listed by the source, chain 1 of 2) above
T3 sequence (VL, as listed by the source, chain 2 of 2): as the sequence (VL, as listed by the source, chain 2 of 2) above
Procedure: as §1, §2

Binder	Anti-CD28 Fab (SEQ ID NOs: 696, 697) signal
B30	1.73
B31	1.74
B32	1.73
B33	1.75
B34	1.74
B35	1.73
B36	1.75
B37	1.73
B38	1.75
B39	1.75
B40	1.73
B41	1.75
B42	1.73

biological target: T3, Anti-CD28 Fab (SEQ ID NOs: 696, 697); experiment: phage binding ELISA on plate-bound anti-CD28 Fab, wells pre-incubated with CD28 antigen as competitor
Procedure: as §1, §2

Binder	Anti-CD28 Fab signal in the presence of CD28
B30	0.09
B31	0.06
B32	0.07
B33	0.06
B34	0.07
B35	0.06
B36	0.06
B37	0.07
B38	0.09
B39	0.07
B40	0.07
B41	0.08
B42	0.08

biological target: T1, Anti-CD28 Fab (SEQ ID NOs: 696, 697); experiment: phage binding ELISA, clonal phage on biotinylated anti-CD28 Fab captured on neutravidin plates, anti-M13 HRP detection
Procedure: as §1, §2

Binder	Anti-CD28 Fab (SEQ ID NOs: 696, 697) signal
B1	1.76
B2	1.76
B3	1.75
B4	1.75
B5	1.76
B6	1.76
B7	1.75
B8	1.76
B9	1.76
B10	1.76
B11	1.75
B12	1.76
B13	1.76

biological target: Anti-CD28 Fab (SEQ ID NOs: 696, 697); experiment: phage ELISA on captured anti-CD28 Fab; competitor CD28 antigen pre-incubated in the wells;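 note: clonal phage supernatants added to wells preloaded with CD28 antigen in blocking buffer, control wells buffer only, bound phage read via HRP-linked anti-M13 antibody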
Target sequence in this assay (VH, as listed by the source, chain 1 of 2): as the sequence (VH, as listed by the source, chain 1 of 2) above
Target sequence in this assay (VL, as listed by the source, chain 2 of 2): as the sequence (VL, as listed by the source, chain 2 of 2) above

Binder	Phage binding ELISA, Anti-CD28 Fab signal in the presence of CD28
B27	0.08
B28	0.08
B29	0.23

biological target: T2, Anti-CD28 Fab (SEQ ID NOs: 696, 697); experiment: phage binding ELISA; clonal phage supernatant on biotinylated anti-CD28 Fab captured on neutravidin plate; anti-M13 HRP detection
Procedure: as §1, §2

Binder	Phage binding ELISA, Anti-CD28 Fab signal
B14	1.76
B15	1.77
B16	1.76
B17	1.77
B18	1.76
B19	1.77
B20	1.78
B21	1.76
B22	1.77
B23	1.77
B24	1.78
B25	1.77
B26	1.78
